Laboratory results taken from patent US20240425606A1, “ANTI-IL-11RA ANTIBODIES” (Lassen Therapeutics 1, Inc., priority 2021, published 2024).
Numbering of substitutions follows the chain as printed. Names and notes keep the numbering of the source. “Also recorded” adds a separate entry of the source. One block for each molecule: values may come before it.

Legend:
[1] = tested on: type VI collagen formation (PRO-C6) in fibrotic human PCLS; assay: Fibrotic human precision-cut lung slice (PCLS) model, PRO-C6 biomarker of ECM remodeling; assay type: cell-based; conditions: 48 hours; for effects on ECM remodeling: fibrotic human PCLS; for median levels of PRO-C6 compared to the no treatment (media) control: pooled data all donors and regions, nintedanib 1 μM, isotype control 30 μg/mL
Experimental: Studies were performed to evaluate the effect of the mAb5 antibody on biomarkers reflecting ECM remodeling in a fibrotic human precision-cut lung slice (PCLS) model. The anti-fibrotic effect was investigated at three different concentrations in human ex vivo lung tissue slices prepared from pulmonary fibrosis patients.
Tissue slices were prepared from the subpleural and central region of the fibrotic lung from two human end-stage donors with pulmonary fibrosis (IPF and secondary fibrosis) (see, for example, Hess et al., Toxicol In Vitro. 32:347-61, 2016). For both donors, lung tissue samples from two different regional areas (subpleural and central) were used to generate tissue cores used for PCLS. Adjacent cores were used to achieve serial PCLS for the analysis of one treatment as compared to medium treated PCLS from the same cores. This enables the comparison of densely packed fibrotic areas with fibrotic foci with less affected areas. To ensure the fibrotic status, clinical/demographic information for each patient is provided.
Each treatment was tested with three replicates for each lung region and for each donor.
Preparation and incubation of precision-cut lung slices. Lung lobes were canuled and filled with 37° C. warm 2% low-melting agarose/medium solution. Filled lobes were cooled on ice to polymerise agarose. Tissue cores with a diameter of 8 mm were prepared and cut into approximately 300 μm thick slices using a microtome (Krumdieck tissue slicer, Alabama Research and Development, Muniford, AL, USA or Vibratome OTS-5000, Science Services GmbH, Munich) in Earle's Balanced Salts Solution (EBSS). Tissue slices were incubated in Dulbecco's modified Eagle's medium/nutrient mixture F-12 Ham (DMEM) with L-glutamine and 15 mM HEPES without phenol red. Tissue slices were transferred into petri dishes and washed with DMEM for 2 hours. Medium was changed four times every 30 minutes in order to remove cell debris.
Two PCLS per well were left over night in 500 μL DMEM in 24-well plates for a final washing step. Next day, PCLS were treated with experimental treatments or controls (see Table E5) in 250 μl DMEM/F-12 culture medium for 48 hours under normal cell culture conditions (37° C., 5% CO2). Medium contained 100 units/mL penicillin and 100 μg/mL streptomycin and was not supplemented with fetal calf serum.
After incubation for 48 hours, supernatants were collected, proteinase inhibitor cocktail (0.2%) was added and samples were frozen to −80° C. Additionally, the two PCLS from each well were transferred to a 2 mL safe-lock tube, snap-frozen in liquid nitrogen immediately, and stored at −80° C. Samples from the three replicates for each condition were not pooled.
Extracellular matrix remodeling evaluation. Biomarkers that reflect ECM remodeling were assessed in supernatant by Nordic Bioscience using the following competitive ELISA: PRO-C6 (C-terminal of type VI collagen C5 domain released as type VI collagen is incorporated into the matrix; measured on mesoscale platform [hsPRO-C6]): Reflects type VI collagen formation. Type VI collagen is a beaded filament collagen mainly found in the interface between the interstitial matrix and the basement membrane.
Statistics. […] Pooled data are presented as percentage of the “no treatment” control, calculated for individual regions and donors. Statistical significant differences were evaluated on pooled data by Kruskal-Wallis with Dunn's multiple comparisons test, comparing to the “no treatment” control. […]

[2] = tested on: IL-11 signaling in STAT3 Reporter (Luciferase)—HEK293 cell line; assay: Cell-based STAT3 reporter (luciferase) assay for inhibiting IL-11 signaling; design: species or system human; conditions: compared with TS7 and 8E2
Experimental: Further testing of the lead mAbs was carried out using a cell-based reporter assay. IL-11 is reported to signal through the STAT3 and ERK pathways. Therefore, a STAT3 reporter cell line in which firefly luciferase gene expression is driven by STAT3 response elements located upstream of a minimal TATA promoter was selected to analyze mAb functional activity. In these cells, IL-11 can activate the endogenous STAT3 allowing it to bind to the STAT3 response elements, inducing transcription of the luciferase reporter gene and resulting in readily detectable luciferase expression. Antibodies to IL-11R which block IL-11 signaling should inhibit expression of IL-11 driven luciferase in these cells.
The STAT3 Reporter (Luciferase)—HEK293 cell line (BPS Bioscience, catalog #79800-P) was grown, passaged, and assayed as per manufacturer's protocols. Cells were added at 25,000 cells per well in a 96-well microtiter dish and incubated at 37° C. for 30-45 min. in 5% CO2 humidified air. Anti-IL-11R mAbs were added as a 3-fold dilution series in duplicate columns or rows, and plates were returned to the incubator for an additional 1 h at 37° C. after which 40 ng/mL IL-11 was added to each well to initiate the signal transduction cascade and luciferase production. Plates were incubated for 18-24 hours at 37° C. and luciferase was detected using a One-Step Luciferase Assay System (BPS Bioscience, cat. no. 60690-1) as per manufacturer's instructions.

[3] = target: T1, hIL-1 IR (Homo sapiens, UniProt Q14626); assay: Alternate biolayer interferometry assay (AHC biosensors) ranking mAbs 16-32 against mAb5; assay type: binding; conditions: for ka: association 120 s; for kd: dissociation 1200 s; for qualitative assessment: compared to mAb5
T1 sequence (Q14626 23-422): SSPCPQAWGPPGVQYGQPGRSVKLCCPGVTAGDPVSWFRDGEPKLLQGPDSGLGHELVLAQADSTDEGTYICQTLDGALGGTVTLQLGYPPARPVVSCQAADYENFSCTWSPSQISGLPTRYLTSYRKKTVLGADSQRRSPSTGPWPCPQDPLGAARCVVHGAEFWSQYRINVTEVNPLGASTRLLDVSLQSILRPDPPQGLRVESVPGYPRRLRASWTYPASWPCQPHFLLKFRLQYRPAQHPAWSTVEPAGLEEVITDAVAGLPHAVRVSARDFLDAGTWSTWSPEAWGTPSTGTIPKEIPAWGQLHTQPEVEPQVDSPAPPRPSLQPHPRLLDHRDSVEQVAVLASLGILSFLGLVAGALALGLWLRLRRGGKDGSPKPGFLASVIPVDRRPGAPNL
Description: A further series of antibodies were designed in which the residue at Kabat position 31 of the heavy chain was varied (mAbs 16-32). In this case an alternate biolayer interferometry assay was used to initially rank the antibodies compared to mAb5, the closest relative in sequence to mAbs 16-32. MAbs were loaded onto anti-human constant domain (AHC) biosensors (FortdBio) in 10× kinetics buffer consisting of PBS, 0.1% BSA, 0.02% Tween 20 for 120 s to achieve a spectral shift value of 0.8 to 1.2 nm. Association was carried out in the presence of 2-fold dilution series of hIL-1 IR and was allowed to proceed for 120 s. Dilution series started 10 nM. The dissociation in 10× kinetics buffer for 1200 s. Binding kinetic measurements were taken on an Octet RED96e instrument.

[4] = target: T2, hIL-11Rα (Homo sapiens, UniProt Q14626); assay: Kinetic binding analysis by biolayer interferometry (protein G biosensors, Octet RED96e)
T2 sequence (Q14626 23-422): T1 sequence (Q14626 23-422)
Experimental: Association was carried out in the presence of a 2-fold dilution series of hIL-11Rα and was allowed to proceed for 120 seconds; dissociation was measured for 300 to 1200 seconds.

[5] = target: T1, hIL-1 IR; assay: Alternate biolayer interferometry assay (AHC biosensors) ranking mAbs 16-32 against mAb5; assay type: binding; conditions: compared to mAb5

Molecule: COC(=O)c1ccc2c(c1)NC(=O)/C2=C(\Nc1ccc(N(C)C(=O)CN2CCN(C)CC2)cc1)c1ccccc1 [nintedanib, Nintedanib, reference compound]
effects on ECM remodeling [1]: ECM remodeling could be reduced
median levels of PRO-C6 compared to the no treatment (media) control ([1]; mAb5 0.3, 3.0, 30 μg/mL): decreased

B1: mAb5: anti-IL-11Rα antibody; VH SEQ ID NO: 201, VL SEQ ID NO: 202; human IgG4 (S228P), kappa light chain (antibody, V domains shown)
VH: EVQLLESGGGLVQPGGSLRLSCAASGFTFSWYSMTWVRQAPGKGLEWVSSIVPYGDLTQYADSVKGRFTISRDNSKNTLYLQMNSLRAEDTAVYYCAKGPGWGSFDLWGRGTLVTVSS
VL: DIQMTQSPSSLSASVGDRVTITCQASQDINNYLNWYQQKPGKAPKLLIYDASNLQTGVPSRFSGSGSGTDFTFTISSLQPEDIATYYCQQHESQSPTFGPGTKVDIK
modifications: human IgG4 S228P and kappa constant regions; mAb5 VH Chain; mAb5 VL Chain
notes: anti-IL-11Rα antibody; human IgG4 (S228P), kappa light chain
relative potency at inhibiting IL-11 signaling (in words) [2]: more potent at inhibiting IL-11 signaling than either of TS7 or 8E2
effects on ECM remodeling [1]: better effects on ECM remodeling relative to the approved therapy nintedanib
dose dependence of PRO-C6 reduction ([1]; mAb5 0.3, 3.0, 30 μg/mL): dose-dependent manner; also recorded: dose-related reductions
median levels of PRO-C6 compared to the no treatment (media) control ([1]; mAb5 0.3, 3.0, 30 μg/mL): decreased
ka [3]: 490000 M⁻¹ s⁻¹
kd [3]: 2.5e-05 s⁻¹
binding affinity (in words) ([4]; beyond the ability of the instrument to determine an accurate off-rate (kd)): very high binding affinity
ka ([4]; protein G biosensors, association 120 seconds): 63700 M⁻¹ s⁻¹
kd ([4]; protein G biosensors, dissociation 300 to 1200 seconds): <1e-07 s⁻¹

B2: mAb21: anti-IL-11Rα antibody; VH SEQ ID NO: 233, VL SEQ ID NO: 234; heavy chain Kabat position 31 variant of mAb5 (antibody, V domains shown)
VH: B1 VH with W31H
VL: B1 VL
modifications: mAb21 VH Chain; mAb21 VL Chain
notes: anti-IL-11Rα antibody; heavy chain Kabat position 31 variant of mAb5
ka [3]: 750000 M⁻¹ s⁻¹
qualitative assessment [3]: improved/
kd [3]: off-scale
potency by more detailed kinetic measurements (in words) [5]: further improved potency

B4: mAb23: anti-IL-11Rα antibody; VH SEQ ID NO: 237, VL SEQ ID NO: 238; heavy chain Kabat position 31 variant of mAb5 (antibody, V domains shown)
VH: B1 VH with W31K
VL: B1 VL
modifications: mAb23 VH Chain; mAb23 VL Chain
notes: as for B2
ka [3]: 720000 M⁻¹ s⁻¹
qualitative assessment [3]: improved/
kd [3]: off-scale
potency by more detailed kinetic measurements (in words) [5]: further improved potency

The next lines start with the values.

ka [3]: 690000 M⁻¹ s⁻¹
qualitative assessment [3]: improved/
kd [3]: off-scale
potency by more detailed kinetic measurements (in words) [5]: further improved potency
B3: mAb31: anti-IL-11Rα antibody; VH SEQ ID NO: 253, VL SEQ ID NO: 254; heavy chain Kabat position 31 variant of mAb5 (antibody, V domains shown)
VH: B1 VH with W31V
VL: B1 VL
modifications: mAb31 VH Chain; mAb31 VL Chain
notes: as for B2

ka [3]: 610000 M⁻¹ s⁻¹
qualitative assessment [3]: improved/
kd [3]: 1.8e-05 s⁻¹
potency by more detailed kinetic measurements (in words) [5]: further improved potency
B5: mAb29: anti-IL-11Rα antibody; VH SEQ ID NO: 249, VL SEQ ID NO: 250; heavy chain Kabat position 31 variant of mAb5 (antibody, V domains shown)
VH: B1 VH with W31S
VL: B1 VL
modifications: mAb29 VH Chain; mAb29 VL Chain
notes: as for B2
